Residue numbers refer to the chain shown, from its start. Names may count otherwise.
B1: ROCext surface engineered mutant (KA), K1460A and K1463A (domain or fragment, human, UniProt Q5S007 1329-1520, looked up)
chain: AVPYNRMKLMIVGNTGSGKTTLLQQLMKTKKSDLGMQSATVGIDVKDWPIQIRDKRKRDLVLNVWDFAGREEFYSTHPHFMTQRALYLAVYDLSKGQAEVDAMKPWLFNIKARASSSPVILVGTHLDVSDEAQRAACMSKITKELLNKRGFPAIRDYHFVNATEESDALAKLRKTIINESLNFKIRDQLVVG
B2: ROCext, wild-type GTPase (ROC) domain of human LRRK2, residues 1329-1520 (domain or fragment, UniProt Q5S007 1329-1520, looked up)
chain: B1 chain with A132K, A135K

Experiments:
[1] = molecular target: the molecule itself; assay: crystal structure
[2] = molecular target: the molecule itself; assay: SEC-MALS

Protein	stoichiometry N [1]	stoichiometry N [2]
B1	2	
B2		2

From paper doi:10.1101/676627 (bioRxiv, 2019)
